In patent US20190160181A1:

Biological target: Human cyclized NaPi2b peptide (human)
Test: ELISA on plate-coated human cyclized NaPi2b peptide, one site-specific binding fit

Kd: 0.536 nM
B1: XMT-1535 (antibody, V domains shown)
VH: QVQLVQSGAEVVKPGASVKMSCKASGYTFTGYNIHWVKQAPGQGLEWIGAIYPGNGDTSYKQKFRGRATLTADTSTSTVYMELSSLRSEDSAVYYCARGETARATFAYWGQGTLVTVSS
VL: DIQMTQSPSSLSASVGDRVTITCSASQDIGNFLNWYQQKPGKTVKVLIYYTSSLYSGVPSRFSGSGSGTDYTLTISSLQPEDFATYYCQQYSKLPLTFGQGTKLELKR
